Reference: article PMC5741622, “Structure of a Wbl protein and implications for NO sensing by M. tuberculosis” (Nature Communications, 2017)

B1: Mycobacterium tuberculosis WhiB1, untagged, [4Fe-4S] form (holo-WhiB1), co-expressed with His-tagged σ^A or σ^ACTD (natural protein)
chain: MDWRHKAVCRDEDPELFFPVGNSGPALAQIADAKLVCNRCPVTTECLSWALNTGQDSGVWGGMSEDERRALKRRNARTKARTGV
modifications: [4Fe-4S] cluster coordinated by cysteine residues 9, 37, 40 and 46
notes: Iron-sulfur cluster assembled in vivo; free [4Fe-4S]; WhiB1 seen at 9668 Da and apo-WhiB1 at 9315 Da in native ESI-MS; also called [4Fe-4S]-WhiB1; untagged WhiB1
B2: M. tuberculosis WhiB1 fused to the T25 domain of Bordetella pertussis adenylate cyclase (natural protein)
chain: B1 chain
notes: also called T25-WhiB1
B3: His-tagged C-terminal domain (amino acids Ala447-Asp528) of M. tuberculosis σ^A (domain or fragment)
chain: AVDAVSFTLLQDQLQSVLDTLSEREAGVVRLRFGLTDGQPRTLDEIGQVYGVTRERIRQIESKTMSKLRHPSRSQVLRDYLD
notes: A thrombin cleavage site lies between the His6 tag and the domain; seen at 11,522 Da in native ESI-MS; also called His-σ^ACTD; σ^ACTD; not shown: His6, N-terminal, kept

Experiments:
[1] = biological target: B3; experiment: native MS; conditions: both partners purified
[2] = biological target: T1, M. tuberculosis σ^ACTD fused to the T18 domain of Bordetella pertussis adenylate cyclase (Mycobacterium tuberculosis, UniProt P9WGI1 447-528); experiment: two-hybrid; conditions: partners not purified
T1 construct: also called T18-σ^ACTD
T1 sequence: B3 chain

[3] = biological target: B1; experiment: pull-down; conditions: partners not purified

**Q.** How did the “stoichiometry N” value [1] turn out when B1 was run?
**A.** 1

**Q.** For B2, which “β-galactosidase activity against the negative control (vectors only)” value [2] is on record?
**A.** ~20 fold

**Q.** And the “β-galactosidase activity against the positive control (Zip-Zip)” value [2]?
**A.** ~3 fold lower

**Q.** Does B3 bind [3]?
**A.** binds
